Assay results as given in PMC11098746 (2024).

B1: 69 (protein)
chain: IYYCNDNILENANNDDSTKDINNINKNSANKAKSEKTSNYNNDQYNIDDAYNEDEENDEEEGDDDENDHFEVPINCAGGNCFDSMDDINKIIDNKKKKMKYRRRRGKAIQIIKPNVNHAELIIIEENLEIFKRIDKPIAIVSVLGDMHTGKSFLLNLLNEHVIPDINKANKYIENGFKVGNDITASTYGIWIWSEPIRINVKKLKKIYEYINENFANFIKSYEYEKDEYNEEIIDLLNLYKTDDWISNVEELNLADTDEVNLILMDTQGLNSPNVNKRYDEILYALTNLISTDIIFLTMKMINNKDLEFIENIAKDANLFMLRAYTRSSGSTFSIKKNNFHKILDTLNNNLENNALILESIASKNLMWVVHDFSQRLDVRKGKLWLDILLNSDRRDLDIKYWKKIISNKAKDKHDAYTTKKQKIAYLTYNENSASGLLPNNNNNNNNANDASSNYKLNILYKNIDCVLLRNMYHNKEFDFTKANINDLNEEYKNDVLLLRYKIYLRALLFPKKMYSDVQINNIINKIRKEQKLREEQEKNKDNKKNDANNQANDLNSNKDETSGSQVTNRFMSGHDVYDFITFLVKSANQNLFTNVNQFFKHFKINRAEISRNDLIFLYKKYLLQFMENEDVEFISNLNDENDDLFLQKEGNNAAVNHDENSDADSLFNDHDENMQLKEHNIKDGEDNTHQKKDSYKLPPLLNEIKKYEELIREQILNIWYKYTESDFHDEEEKELIKDIENNLYERLDQIKIEMLELGEMNIRKFCKIACEDALQIVVEDIKMKSDQYPIKQKDLTTFFESVSYNLIKYLEKKLSKNSDKLDLIYYKDNICSPLINNAFQEFYFLKKKNIALNENRLKSYFSNAVEKGKEVFEVLAENTENIAEYFKNKNMFYTVLDKWTSEAINTYTLTLSDFAKEEKEINDEYLNVLNNDIKLLKQKAMEKWHNHCRDKTSALYNMHKSNLKKNFLENFNFPLDELVLQDIFLNLKGQEELKYMDIYCANEDSWNSEYKNFLKLTDEIFQFIKDENLKAIQITCQQPLDELKNGIKGEIHKYYLWSSLKSTLYNRALIVLSSNIENIYIKNQRENKIQSNLDEKYNNKNKNYKRISKDLMSKVINRWLNNDIYNVYYP
modifications: bait human Fc-tagged dimer
B2: 20 (protein)
chain: DIIIVDSNKDIQGFDPNSVLNLAENVFNIFLDTKTNNADIKTVYSSIFSNSKVTIDGTCSSMKELIKGRSLKYLDELGTEEYVNSDDVFNFAIFVYTVNGQPDIIQQVYKKHPNYISYIITCKESELFDNIEDAKDNKNVFHTNP
modifications: bait human Fc-tagged dimer
B3: 39 (protein)
chain: GTIEIKLSEFVGDSVNLAAKLHGFFLELNVNIAFTVICSNGMKALNGICIPCPLGSYNNINEYIKNNNIYECTLCHNNAATKNEGSTSISQCLCLPGYELNNNDLCVPCKRGTWKTKLSNSPCIFHCYPNSYSLVQGSRSEEESKCKCKRGFYFVSKDSINFCDNCNIGYFCPGGYKIGEKKCPKNTANIAQNNFAISSCKCDVGFEPFDSSNLNAYNFKNDPIFNDYKDFLDDVKSSQICVPCKEGFYKNTVSEEKCKRCSDNVYTDGLQSTSISNCKKCEKGYYLQSEDSCIICPDNHYCPGAYINDPKYAIYENQKIPCGDKSLTIPPNNLNVAHLNCLCKKGFEFIKTDDNEFDCLEVPKNYYKSHLGNKEKEPCPENSVTLYTQTKSKVKCLCMPGYYWDLKEFKCIKCPKGHYCPGGYLKNCFNNQNLHSCKPQKKKCPLKNSATQTKESFSQSSCLCDKGYTINKEELRECIPCPINTYKDVISNAECTKCLTPYTTDGQIGSTKEEDCTCSGGFFFLNHCLPCSDKNTYCKGGKMIVNNKNKAIHYGPSKCPPNTAVSFETERPYNKGFCVCQKGFKHVYTTSDFTKICAPCERGFFKTIIGDFSCESKCKPNSASFVGTIHETHCFCLENYYFKNGICLNCPDGAYCEGGFQKETLLYMKKNEYYLDTSKIKHIMPVPKENYALYKLKTNIYNTDWFIVECPIKEACLYNEKCHESMTNFLCGECKKGYTNNFAKLNLCIKCSGHIMN
modifications: bait human Fc-tagged dimer
B4: 88 (protein)
chain: FENAIKKTKNQENNLALLPIKSTEEEKDDIKNGKDIKKEIDNDKENIKTNNAKDHSTYIKSYLNTNVNDGLKYLFIPSHNSFIKKYSVFNQINDGMLLNEKNDVKNNEDYKNVDYKNVNFLQYHFKELSNYNIANSIDILQEKEGHLDFVIIPHYTFLDYYKHLSYNSIYHKSSTYGKCIAVDAFIKKINEAYDKVKSKCNDIKNDLIATIKKLEHPYDINNKNDDSYRYDISEEIDDKSEETDDETEEVEDSIQDTDSNHAPSNKKKNDLMNRAFKKMMDEYNTKKKKLIKCIKNHENDFNKICMDMKNYGTNLFEQLSCYNNNFCNTNGIRYHYDEYIHKLILSVKSKNLNKDLSDMTNILQQSELLLTNLNKKMGSYIYIDTIKFIHKEMKHIFNRIEYHTKIINDKTKIIQDKIKLNIWRTFQKDELLKRILDMSNEYSLFITSDHLRQMLYNTFYSKEKHLNNIFHHLIYVLQMKFNDVPIKMEYFQTYKKNKPLTQ
modifications: bait human Fc-tagged dimer
B5: 11 (protein)
chain: LKVPIENAPFVFNKKENDIKYFLDKETPDDFLSNNAYSLDITLENFPNPFFHPSLCNRYGFKFSYICDPNKILSRNIADQIEEILNYQRRNSKHFCVDKEVPYVLGVALINKLPYGISADTFASQIFEYWKLSNKDCNDGVLLFFVKEDTHFILKWKKGAQSIINFRTATSMNKAFNQYLRKYSLEYSILSAVKLTSQYLTEEIIPPTQTAQK
modifications: bait human Fc-tagged dimer
B6: 48 (protein)
chain: GCIKLKTSYKHEPILLLKNDERIISLNKIIPYLTEEVFISKDNIMTKINVENNICIELIKKHEILNTPIEHFFHFTNREYTIDLRNNDNIYNYAKRILNNKLDFELCNKILSFTIPINYNICSFPSYHNYFLYINYLKDVKIELIISALEKAKFLFLKIPNTFNLNTAHANFNDNDYIIEKGILENDLIKIDISKIIHRYICKKYYLYKSDEQINDDDLRQINNNNANNDISDKEIKMVLMTSHTLSDIIIFPSIIQNVQALKHYKNIKNVVKLKKKIKKRYTEWENWAPCYNVCNNNFAYKCRYYKCTTENQEFCDQNFHMNFAECPFTPCEDAIKKENEKKEIEKDKNKAIIINHENNRDQEGPIDDETMLRYRKNKKISFFMWIINNKK
modifications: bait human Fc-tagged dimer
B7: 70 (protein)
chain: NTYIYLKQDSFVFSNEFPTVEEKNQALGENYEIVTLTTKDNHKFTCWYIKTKDSENKPIMLYFQGNGGYLEKYMNLFNLIIERVDVNIFSCSNRGCGSNIAKPSEEYFYKDAHVYIEYVKTKNPKHLFIFGSSMGAAVAIDTALKQHDHISGLIVQNAFTSLKELSRYSHPFLNYFLFDYDMIIRSKMDNEAKIKNIAVPTLFTLSEMDEKVPTSHTRTLFQLSASTNKQLYLSKGGTHPNILKNDDGSYHKAMKKFIVTAISIREKNIQKAVERNPNTPN
modifications: bait human Fc-tagged dimer
B8: 36 (protein)
chain: QDEKSVKNICVCDFTDKLNFLPLEKTKILCELKPQYGEDIKIIANKEYEINCMNNAKVFCPLKDTFINNANIKLYSPKLHFEIKDITHKGKNAALYYLKIDEEASDIFFSCSIKPKQVSGLLEGEVRVNLKKHINEEYSIFNEEEDVHVCDFSKGNLDITPSAGFYLKNSRNVACIYRVIPNKLFLIKLPKLDIVTEKLLPSIVNCLSEFSFINFALKHVQEGDNYISFNVIFGEFKKHFNLACSLDLSDFQQEPCNLGKTANIAFIFSK
modifications: bait human Fc-tagged dimer
B9: 29 (protein)
chain: QNYWEHPYQNSDVYRPINEHREHPKEYEYPLHQEHTYQQEDSGEDENTLQHAYPIDHEGAEPAPQEQNLFSSIEIVERSNYMGNPWTEYMAKYDIEEVHGSGIRVDLGEDAEVAGTQYRLPSGKCPVFGKGIIIENSNTAFLTPVATGNQYLKDGGFAFPPTEPLMSPMTLDEMRHFYKDNKYVKNLDELTLCSRHAGNMIPDNDKNSNYKYPAVYDDKDKKCHILYIAAQENNGPRYCNKDESKRNSMFCFRPAKDISFQNYAYLSKNVVDNWEKVCPRKNLQNAKFGLWVDGNCEDIPHVNEFPAIDLFECNKLVFELSASDQPKQYEQHLTDYEKIKEGFKNKNAAMIKSAFLPTGAFKADRYKSHGKGYNWGNYNTETQKCEIFNVKPTCLINNAAYIATTALSHPIEVENNFPCSLYKDEIMKEIERESKRIKLNDNDDEGNKKIIAPRIFISDDKDSLKCPCDPEMVSNSACRFFVCKCVERRAEVTSNNEVVVKEEYKDEYADIPEHKPT
modifications: bait human Fc-tagged dimer
B10: 63 (protein)
chain: FRGNNGHNSASSLYNGAQFIEQLNNAFTSAFLESQSMNKIGDDLAETISNELVSVLQKNSPTFLESSFDIKSEVKKHAKSMLKELIKVGLPSFENLVAENVKPPKVDPATYGIIVPVLTSLFNKVETAVGAKVSDEIWNYNSPDVSESEESLSDDFFD
modifications: bait human Fc-tagged dimer
B11: 62 (protein)
chain: EFKRKQKVEINSLQTNKNNDNIREEKIKGDVESQPDVDGDTCVIFSSSEGNSRNCWCPRGYILCSEEDVLDVQGKLNEIKNKHERSLVTPLWMKRLCDNSNDVGFKSMSVVIDYELAVLCKDGSNKDYADFEIIGASGYITGEEMIEEQKRNPWYVPRKCTVNNFYLCRKVENDNVNCAYTPWSDWSACKNNAQKRYRKVRRSNQNNENFCLWNDKIVPRNIMEQTRSC
modifications: bait human Fc-tagged dimer
B12: 14 (protein)
chain: KNINLNDEGKKKQSGIINENEDGKNNKANNNKKVQHNKINRKGNNAVTKKTDEHKNDGDAENKKNGEHKNDGDGKNKKNGEHKNDGDGKNKKMDEHLYDIDGENKKNGEHLYDVDGENKKNGEHLYDIDGENKKNGEHLYDIDGENKKTDEHLYDVDGGKNNILEYNNIDQHNEFPESLENDNSYDKLFDDVELRDIIHNEKFFENLKNVNNNDVHNFLLVDKEMERRKEEEKKKSRKLEEDEEDDEDEEEDNDEKWKEENKNNAASSSSSSSNNFNKNYDIYDNRDLYNYDNLVDITQEEHINVPNINDEINEGRKHDKEDFLIFEKRLNEAEDRNDASDGDNKMEDLINNHFDDSGDNGAYENIQVKKELYNKNEKIIKGRDNNLNDGDIHMNKNNAANKLNNNNNNNNNDNNMNSEMKYKTFKEEYEEQILSKP
modifications: bait human Fc-tagged dimer
B13: 82 (protein)
chain: GLCKPCTLENHYCEGGLESDITFNNKLIKGKFHTLPKKCPRGLGIPNIIKERNSINNCLCIHGKVQRTTENKNVECFPCPPNTFKENEYDNSCSGACPPFSTTFVGSSYENQCFCKNNYYLVSTDDENDANGNSINNNKNIYNNNNIYNNNNNNNNNNNNNFNNKADVKKKSCKICPIGAICNRGFNIYIYLKLLNDRSYNNINVIDHETPFPKYGYYAVYREKTNPAKSWDTLDDSAILNYVYPYHKLLLFIQKNIQKGNYFFLEKGNKFFLNDDFVEKMNEKSKYEEENANKFVTKSEIIHNVNTNNLKGKHNTLNNNNNNNNINKASSFLNQNNYNNDIIQLSSYENNPFKNLASTSEVSSNNNVISFIQNNDKTNNAANDNNIENLVDIFNKYVQEAKELQIQNRKFERIPDIHPCTIPNRCLGTLINLCSDGSTGYQCNNCAKNYDMSYFKSKCKKCQNLFYE
modifications: bait human Fc-tagged dimer
B14: 54 (protein)
chain: DQLDMGSVHNNNAVVGNSASHSPSSSSSSPSSSSSSSSSSPSASSSSSSSSPASSSSSPSSTSDDSKNAALDKIDEELQKKKKNEKL
modifications: bait human Fc-tagged dimer

Biological target: FGFR4 ectodomain (Homo sapiens, UniProt P22455)
Experiment: AVEXIS normalised luminescence

Binder	binding score
B1	0.719
B2	1.16
B3	0.948
B4	1.03
B5	1.58
B6	0.752
B7	0.951
B8	0.937
B9	1.43
B10	1.23
B11	1.47
B12	0.821
B13	1.25
B14	0.958
